Assay results: PMC6123492, “Structural and biochemical insights into small RNA 3′ end trimming by Arabidopsis SDN1”

Legend:
[1] = molecular target: T1, SDN1 RRM (NMR) (Arabidopsis thaliana, UniProt A3KPE8 305-409); experiment: NMR titration; EMSA: 50 mM Tris pH 8.0, 100 mM NaCl, 1 mM DTT, no Mg2+, 2 nM RNA, on ice 30 min, 8% native PAGE in 0.5x TBE; NMR: 50 mM Na2HPO4 pH 7.4, 100 mM NaCl, 10% D2O; conditions: protein: recombinant; tags: His-SUMO tag removed; 15N-labeled; single strand
T1 sequence: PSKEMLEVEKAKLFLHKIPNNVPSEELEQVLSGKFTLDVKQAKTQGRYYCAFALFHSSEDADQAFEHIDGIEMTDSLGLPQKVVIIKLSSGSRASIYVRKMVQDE

[2] = molecular target: T2, SDN1 wild type (Arabidopsis thaliana, UniProt A3KPE8 2-409); experiment: crystal structure; 2 Mg2+; 9 of 10 nt seen, 2.8 Å; EMSA: 50 mM Tris pH 8.0, 100 mM NaCl, 1 mM DTT, no Mg2+, 2 nM RNA, on ice 30 min, 8% native PAGE in 0.5x TBE; NMR: 50 mM Na2HPO4 pH 7.4, 100 mM NaCl, 10% D2O; conditions: protein: recombinant; tags: His-SUMO tag removed; single strand
T2 sequence: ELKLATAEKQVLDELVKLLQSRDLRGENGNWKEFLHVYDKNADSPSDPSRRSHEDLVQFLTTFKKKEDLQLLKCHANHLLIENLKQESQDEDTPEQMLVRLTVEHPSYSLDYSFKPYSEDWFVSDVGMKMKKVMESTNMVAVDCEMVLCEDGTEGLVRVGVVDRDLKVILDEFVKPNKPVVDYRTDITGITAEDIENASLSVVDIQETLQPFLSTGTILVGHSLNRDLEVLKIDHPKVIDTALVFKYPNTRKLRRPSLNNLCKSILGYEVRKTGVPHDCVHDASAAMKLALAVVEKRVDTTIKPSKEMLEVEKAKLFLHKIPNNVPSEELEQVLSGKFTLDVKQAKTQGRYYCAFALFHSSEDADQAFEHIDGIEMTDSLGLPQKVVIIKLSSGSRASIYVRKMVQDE

[3] = molecular target: T2, SDN1 wild type; experiment: UV crosslinking (5-iodoU, 312 nm); EMSA: 50 mM Tris pH 8.0, 100 mM NaCl, 1 mM DTT, no Mg2+, 2 nM RNA, on ice 30 min, 8% native PAGE in 0.5x TBE; NMR: 50 mM Na2HPO4 pH 7.4, 100 mM NaCl, 10% D2O; conditions: protein: recombinant, tags: His-SUMO tag removed
[4] = molecular target: T3, SDN1 ΔC (Arabidopsis thaliana, UniProt A3KPE8 2-302); experiment: as above; conditions: protein: recombinant, tags: His-SUMO tag removed
T3 sequence: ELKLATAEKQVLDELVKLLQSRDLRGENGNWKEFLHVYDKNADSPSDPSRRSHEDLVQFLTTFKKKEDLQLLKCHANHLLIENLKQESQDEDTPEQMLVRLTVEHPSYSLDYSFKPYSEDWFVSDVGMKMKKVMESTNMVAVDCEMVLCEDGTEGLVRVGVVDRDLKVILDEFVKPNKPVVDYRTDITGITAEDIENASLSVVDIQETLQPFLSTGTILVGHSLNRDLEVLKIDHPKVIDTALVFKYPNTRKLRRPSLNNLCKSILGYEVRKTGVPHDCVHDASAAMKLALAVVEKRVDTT

[5] = molecular target: T2, SDN1 wild type; experiment: EMSA; no Mg2+; Kd,app in µM range, value only in figure; EMSA: 50 mM Tris pH 8.0, 100 mM NaCl, 1 mM DTT, no Mg2+, 2 nM RNA, on ice 30 min, 8% native PAGE in 0.5x TBE; NMR: 50 mM Na2HPO4 pH 7.4, 100 mM NaCl, 10% D2O; conditions: protein: recombinant; tags: His-SUMO tag removed; label: 5' 32P; single strand
[6] = label: 5' 32P on target strand, unpaired miR166 3' end (T6-type), target 3' overhang 4 nt

AGCCCAUUAG (ssRNA) [10 nt ssRNA (crystal, NMR)]
binding result [1]: binds | binding result [2]: binds

GAUUCCCUUGAAGCUUGGUCCGGAUUA (ssRNA, 5-iodoU at 25,26) [3'-IUU RNA]
binding result ([3]; label: 32P, single strand): binds | binding result ([4]; label: 32P, single strand): binds

UUCGCUUGCAGAGAGAAAUCAC (ssRNA) [miR173 (22 nt RNA)]
binding result [5]: binds

GAUUCCCUUGAAGCUUGGUCCGGAUUA (ssRNA, 5-iodoU at 15,16) [M-IUU RNA]
binding result ([3]; label: 32P, single strand): binds

GAUUCCCUUGAAGCUUGGUCCGGAUUA (ssRNA, 5-iodoU at 3,4) [5'-IUU RNA]
binding result ([3]; label: 32P, single strand): binds

B1: miR166:3'-IUU (dsRNA)
RNA 1: UCGGACCAGGCUUCAUCCCCC
RNA 2: GAUUCCCUUGAAGCUUGGUCCGGAUUA
modifications: 5-iodoU at 25,26 of strand 2
binding result [3, 6]: binds | binding result [4, 6]: binds

B2: miR166:5'-IUU (dsRNA)
RNA 1: UCGGACCAGGCUUCAUCCCCC
RNA 2: GAUUCCCUUGAAGCUUGGUCCGGAUUA
modifications: 5-iodoU at 3,4 of strand 2
binding result [3, 6]: binds
